The values below come from patent US20180327500A1 (SYMPHOGEN A S, published 2018).

The target of one assay is T1, Mouse Blade 1-7.
T1 construct: human/mouse chimera on transfected HEK293 cells; also called AA 25-513
T1 MET ECD-SV5-GPI fusion: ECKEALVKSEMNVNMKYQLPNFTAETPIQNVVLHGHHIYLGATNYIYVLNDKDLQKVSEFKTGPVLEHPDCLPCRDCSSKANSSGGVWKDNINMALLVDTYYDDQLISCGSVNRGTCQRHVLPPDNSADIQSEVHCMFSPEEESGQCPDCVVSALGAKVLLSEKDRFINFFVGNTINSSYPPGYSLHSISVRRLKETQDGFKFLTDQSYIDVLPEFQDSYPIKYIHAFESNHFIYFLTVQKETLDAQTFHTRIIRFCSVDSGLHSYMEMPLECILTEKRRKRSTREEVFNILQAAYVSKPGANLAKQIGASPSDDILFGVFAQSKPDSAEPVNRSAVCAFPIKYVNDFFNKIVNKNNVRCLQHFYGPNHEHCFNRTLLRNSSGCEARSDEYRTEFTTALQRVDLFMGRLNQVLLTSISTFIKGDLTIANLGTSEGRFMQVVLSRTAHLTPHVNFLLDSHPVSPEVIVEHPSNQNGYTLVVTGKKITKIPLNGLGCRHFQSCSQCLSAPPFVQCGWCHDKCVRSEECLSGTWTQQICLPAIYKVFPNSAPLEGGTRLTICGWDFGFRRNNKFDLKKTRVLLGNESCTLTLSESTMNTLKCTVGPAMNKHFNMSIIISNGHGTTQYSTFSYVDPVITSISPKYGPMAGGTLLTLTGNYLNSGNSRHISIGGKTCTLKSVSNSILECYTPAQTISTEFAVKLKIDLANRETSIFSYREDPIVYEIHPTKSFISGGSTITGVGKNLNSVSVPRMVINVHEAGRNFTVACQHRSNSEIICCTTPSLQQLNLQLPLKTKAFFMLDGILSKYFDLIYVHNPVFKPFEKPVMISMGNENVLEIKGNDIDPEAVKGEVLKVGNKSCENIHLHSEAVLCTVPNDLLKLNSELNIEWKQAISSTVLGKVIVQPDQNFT
The experiment in a line: flow cytometry on transfected HEK293 cells.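 Note: antibodies applied at 50 µg/ml, binding called specific when fluorescence exceeds the mean signal on a negative control chicken or mouse MET construct plus four SD.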 On the technique in general: In flow cytometry, cells or beads pass a laser one at a time.

A further assay concerns the target T2, LS4.
T2 construct: human/mouse chimera on transfected HEK293 cells; also called AA 25-371
T2 MET ECD-SV5-GPI fusion: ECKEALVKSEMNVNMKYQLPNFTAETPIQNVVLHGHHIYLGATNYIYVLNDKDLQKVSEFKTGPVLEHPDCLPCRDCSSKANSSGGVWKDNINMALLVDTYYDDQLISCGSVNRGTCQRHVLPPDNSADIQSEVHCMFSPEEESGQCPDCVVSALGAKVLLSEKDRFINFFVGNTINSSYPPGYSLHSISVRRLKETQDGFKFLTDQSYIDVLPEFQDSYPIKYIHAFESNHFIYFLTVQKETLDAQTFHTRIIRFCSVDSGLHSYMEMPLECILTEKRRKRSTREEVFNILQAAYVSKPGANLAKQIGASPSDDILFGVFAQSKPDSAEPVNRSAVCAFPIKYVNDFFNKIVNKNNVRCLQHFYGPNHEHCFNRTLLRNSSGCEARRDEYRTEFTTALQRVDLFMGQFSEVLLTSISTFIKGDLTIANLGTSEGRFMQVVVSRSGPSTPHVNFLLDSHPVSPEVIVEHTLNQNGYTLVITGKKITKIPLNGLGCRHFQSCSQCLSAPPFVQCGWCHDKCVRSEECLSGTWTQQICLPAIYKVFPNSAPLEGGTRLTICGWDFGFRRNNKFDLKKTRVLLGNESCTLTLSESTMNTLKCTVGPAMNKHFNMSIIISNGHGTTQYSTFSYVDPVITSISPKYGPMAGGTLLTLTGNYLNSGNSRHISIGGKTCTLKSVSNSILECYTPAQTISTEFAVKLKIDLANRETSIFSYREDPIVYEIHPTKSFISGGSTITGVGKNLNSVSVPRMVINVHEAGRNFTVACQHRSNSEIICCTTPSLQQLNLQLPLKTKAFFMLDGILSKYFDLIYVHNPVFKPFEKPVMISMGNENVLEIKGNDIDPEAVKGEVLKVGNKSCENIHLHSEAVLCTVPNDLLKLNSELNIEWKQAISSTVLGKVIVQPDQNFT
The experiment in a line: flow cytometry on transfected HEK293 cells.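 Note: antibodies applied at 50 µg/ml, binding called specific when fluorescence exceeds the mean signal on a negative control chicken or mouse MET construct plus four SD.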

Assay [1] addresses T3, His tagged human MET ECD (Sinobiological) (human, UniProt P08581 25-932).
T3 construct: Bought monovalent antigen; also called human MET antigen; not shown: His tag
The experiment in a line: SPR (Bio-Rad XPR-36); antibody captured on anti-human IgG Fc surface, MET ECD 25 to 1.56 nM, 1:1 Langmuir fit.

Assay [2] concerns the target T3, His tagged human MET ECD …. The experiment in a line: BLI (Octet QK384); antibody captured on anti-human Fc sensors, monovalent MET ECD in solution, 1:1 Langmuir fit. Background: Biolayer interferometry detects binding as a change in optical thickness at a sensor tip.
Description: His tagged human or cynomolgus MET ECD antigens were purchased from Sinobiological, China. […] Measurements were conducted with a plate rotation speed of 1000 rpm and sensors were regenerated and reused by brief 5 second alternations between exposure to 10 mM Glycine:HCl buffer (pH 1.5) or PBS buffer containing 1% BSA and 0.001% Tween 20 three times. For the Surface Plasmon Resonance experiments conducted on the Bio-Rad XPR-36 instrument, anti-MET antibodies were adjusted to a concentration of 0.25-0.5 μg/ml and captured on anti-human IgG Fc surfaces generated by immobilizing a monoclonal anti-human Fc antibody (Biacore, Denmark). […] The recorded binding responses were fitted to a simple Langmuir 1:1 binding model for calculation of the on-rate (kon or ka), off-rate (koff or kd) and affinity (KD) constants using double referencing.

Description for LS4: (§1) Cut-off values defined as the average fluorescence signal of all antibodies tested at 50 μg/ml to the negative control chicken or mouse MET construct+four standard deviations were employed to discriminate background binding from specific binding for the domain exchange or blade exchange constructs.
Description for Mouse Blade 1-7: as §1

B1: humanized antibody 9006 (antibody, human IgG1, kappa, V domains shown)
VH: QVQLVQSGSELKKPGASVKVSCKASGYTFTNFRMNWVKQAPGQGLKWMGWINTYTGEPTYVDDLKGRFVFSLDTSVSTAYLQISSLKAEDTAVYYCARKGIARAMDYWGQGTTVTVSS
VL: DIVMTQSPDSLAVSLGERATINCKSSQSLLDSGNQKNYLAWYQQKPGQPPKLLIFGASTRESGVPDRFSGSGSGTDFTLTISSLQAEDVAVYYCQNDHSYPYTFGQGTKLEIKR
notes: also called Hu9006; hu9006
With B1, the binding result in the assay with Mouse Blade 1-7 was “no binding (tested: 50 µg/ml)”. The binding result in the assay with LS4 is on record as “no binding (tested: 50 µg/ml)”. Further, in assay [1], binding was put at a Kd of 0.055 nM, the koff amounted to 1.1e-05 s⁻¹ and the kon amounted to 190000 M⁻¹ s⁻¹. For the same molecule, in assay [2], the affinity, expressed as Kd, was 1.2 nM; the koff turned out to be 7.6e-05 s⁻¹; the kon was 62000 M⁻¹ s⁻¹.

B2: humanized antibody 9338 (antibody, human IgG1, kappa, V domains shown)
VH: QVQLVQSGAEVKKPGSSVKVSCKASGYTFTSYWMHWVRQAPGQGLEWMGYINPSSGHIENNQKFKDRVTITADKSTSTAYMELSSLRSEDTAVYYCARGRFAYWGQGTLVTVSS
VL: EIVLTQSPATLSLSPGERATLSCSASSSVSSGYLYWYQQKPGQAPRLLIYSTSNLASGIPARFSGSGSGTDFTLTISSLEPEDFAVYYCHQWSSYPFTFGSGTKLEIKR
notes: also called Hu9338; hu9338
Take B2: the binding result with Mouse Blade 1-7 and in the assay with LS4 was “no binding (tested: 50 µg/ml)” throughout.

In general, Kd refers to the constant that tells how readily two partners part at equilibrium. The low end stands for a tighter complex, the high end for a looser complex. The koff is the first-order rate constant of dissociation. A higher koff goes with a short-lived complex. The term kon denotes the rate constant with which the complex forms. Read a high kon as faster complex formation.
